Results reported in the supplement of paper PMC11246515.
± gives the standard deviation of the averaged measurements.

Assay: total protein half-life in vivo (active degradation + dilution); higher = more stable protein
[1] = E. coli NCM3722 delta-hslV, growth: N-lim chemostat, doubling time 6 h
[2] = E. coli NCM3722 delta-smpB, growth: N-lim chemostat, doubling time 6 h
[3] = wild type E. coli NCM3722, growth: C-lim chemostat, doubling time 6 h
[4] = wild type E. coli NCM3722, growth: C-lim chemostat, doubling time 12 h
[5] = wild type E. coli NCM3722, growth: N-lim chemostat, doubling time 6 h
[6] = wild type E. coli NCM3722, growth: P-lim chemostat, doubling time 12 h
[7] = E. coli NCM3722 delta-clpP delta-lon delta-hslV, growth: N-lim chemostat, doubling time 6 h
[8] = E. coli NCM3722 delta-lon, growth: N-lim chemostat, doubling time 6 h
[9] = wild type E. coli NCM3722, growth: N-lim chemostat, doubling time 12 h
[10] = wild type E. coli NCM3722, growth: P-lim chemostat, doubling time 6 h
[11] = E. coli NCM3722 delta-clpP, growth: N-lim chemostat, doubling time 6 h
[12] = wild type E. coli NCM3722, growth: C-lim chemostat, doubling time 3 h

Sequence	total protein half-life in vivo [1]	total protein half-life in vivo [2]	total protein half-life in vivo [3]	total protein half-life in vivo [4]	total protein half-life in vivo [5]	total protein half-life in vivo [6]	total protein half-life in vivo [7]	total protein half-life in vivo [8]	total protein half-life in vivo [9]	total protein half-life in vivo [10]	total protein half-life in vivo [11]	total protein half-life in vivo [12]
MSNVIASLEKVLLPFAVKIGKQPHVNAIKNGFIRLMPLTLAGAMFVLINNVFLSFGEGSFFYSLGIRLDASTIETLNGLKGIGGNVYNGTLGIMSLMAPFFIGMALAEERKVDALAAGLLSVAAFMTVTPYSVGEAYAVGANWLGGANIISGIIIGLVVAEMFTFIVRRNWVIKLPDSVPASVSRSFSALIPGFIILSVMGIIAWALNTWGTNFHQIIMDTISTPLASLGSVVGWAYVIFVPLLWFFGIHGALALTALDNGIMTPWALENIATYQQYGSVEAALAAGKTFHIWAKPMLDSFIFLGGSGATLGLILAIFIASRRADYRQVAKLALPSGIFQINEPILFGLPIIMNPVMFIPFVLVQPILAAITLAAYYMGIIPPVTNIAPWTMPTGLGAFFNTNGSVAALLVALFNLGIATLIYLPFVVVANKAQNAIDKEESEEDIANALKF	7.11 h	6.04 ± 0.73 h	6.68 ± 0.31 h	9.58 ± 2.1 h	6.51 h	13.3 h						
MSPCKLLPFCVALALTGCSLAPDYQRPAMPVPQQFSLSQNGLVNAADNYQNAGWRTFFVDNQVKTLISEALVNNRDLRMATLKVQEARAQYRLTDADRYPQLNGEGSGSWSGNLKGNTATTREFSTGLNASFDLDFFGRLKNMSEAERQNYLATEEAQRAVHILLVSNVAQSYFNQQLAYAQLQIAEETLRNYQQSYAFVEKQLLTGSSNVLALEQARGVIESTRSDIAKRQGELAQANNALQLLLGSYGKLPQAQTVNSDSLQSVKLPAGLSSQILLQRPDIMEAEHALMAANANIGAARAAFFPSISLTSGISTASSDLSSLFNASSGMWNFIPKIEIPIFNAGRNQANLDIAEIRQQQSVVNYEQKIQNAFKEVADALALRQSLNDQISAQQRYLASLQITLQRARALYQHGAVSYLEVLDAERSLFATRQTLLDLNYARQVNEISLYTALGGG		5.15 ± 2.9 h	7.18 h	> 16 h	6.34 ± 0.14 h	13.07 ± 0.062 h	6.75 h	5.11 ± 0.78 h	12.47 ± 0.09 h	6.29 ± 0.17 h		
MSQALKNLLTLLNLEKIEEGLFRGQSEDLGLRQVFGGQVVGQALYAAKETVPEERLVHSFHSYFLRPGDSKKPIIYDVETLRDGNSFSARRVAAIQNGKPIFYMTASFQAPEAGFEHQKTMPSAPAPDGLPSETQIAQSLAHLLPPVLKDKFICDRPLEVRPVEFHNPLKGHVAEPHRQVWIRANGSVPDDLRVHQYLLGYASDLNFLPVALQPHGIGFLEPGIQIATIDHSMWFHRPFNLNEWLLYSVESTSASSARGFVRGEFYTQDGVLVASTVQEGVMRNHN [P0AGG2]	4.986 ± 0.04 h	5.17 ± 0.67 h	6.42 ± 0.37 h	10.69 ± 0.082 h	5.04 ± 0.13 h	13.018 ± 0.0091 h	5.35 ± 0.059 h	5.37 ± 0.47 h	8.59 ± 0.29 h	5.922 ± 0.027 h	5.17 ± 0.18 h	
MSQHNEKNPHQHQSPLHDSSEAKPGMDSLAPEDGSHRPAAEPTPPGAQPTAPGSLKAPDTRNEKLNSLEDVRKGSENYALTTNQGVRIADDQNSLRAGSRGPTLLEDFILREKITHFDHERIPERIVHARGSAAHGYFQPYKSLSDITKADFLSDPNKITPVFVRFSTVQGGAGSADTVRDIRGFATKFYTEEGIFDLVGNNTPIFFIQDAHKFPDFVHAVKPEPHWAIPQGQSAHDTFWDYVSLQPETLHNVMWAMSDRGIPRSYRTMEGFGIHTFRLINAEGKATFVRFHWKPLAGKASLVWDEAQKLTGRDPDFHRRELWEAIEAGDFPEYELGFQLIPEEDEFKFDFDLLDPTKLIPEELVPVQRVGKMVLNRNPDNFFAENEQAAFHPGHIVPGLDFTNDPLLQGRLFSYTDTQISRLGGPNFHEIPINRPTCPYHNFQRDGMHRMGIDTNPANYEPNSINDNWPRETPPGPKRGGFESYQERVEGNKVRERSPSFGEYYSHPRLFWLSQTPFEQRHIVDGFSFELSKVVRPYIRERVVDQLAHIDLTLAQAVAKNLGIELTDDQLNITPPPDVNGLKKDPSLSLYAIPDGDVKGRVVAILLNDEVRSADLLAILKALKAKGVHAKLLYSRMGEVTADDGTVLPIAATFAGAPSLTVDAVIVPCGNIADIADNGDANYYLMEAYKHLKPIALAGDARKFKATIKIADQGEEGIVEADSADGSFMDELLTLMAAHRVWSRIPKIDKIPA	5.76 ± 0.4 h	5.28 ± 0.077 h	5.76 ± 0.23 h	10.8 ± 0.26 h	5.81 ± 0.24 h	11.9 ± 0.53 h	6.34 ± 0.49 h	5.78 ± 0.094 h	12.3 ± 1.9 h	5.88 ± 0.41 h	6.14 ± 0.56 h	2.79 ± 0.4 h
MSQIFAYCRISTLDQTTENQRREIESAGFKIKPQQIIEEHISGSAATSERPGFNRLLARLKCGDQLIVTKLDRLGCNAMDIRKTVEQLTETGIRVHCLALGGIDLTSPTGKMMMQVISAVAEFERDLLLERTHSGIVRARGAGKRFGRPPVLNEEQKQAVFERIKSGVSISAIAREFKTSRQTILRAKAKLQTPDI		1.43 h		4.26 h			5.84 ± 0.17 h	3.81 h				1.59 h
MSQIHKHTIPANIADRCLINPQQYEAMYQQSINVPDTFWGEQGKILDWIKPYQKVKNTSFAPGNVSIKWYEDGTLNLAANCLDRHLQENGDRTAIIWEGDDASQSKHISYKELHRDVCRFANTLLELGIKKGDVVAIYMPMVPEAAVAMLACARIGAVHSVIFGGFSPEAVAGRIIDSNSRLVITSDEGVRAGRSIPLKKNVDDALKNPNVTSVEHVVVLKRTGGKIDWQEGRDLWWHDLVEQASDQHQAEEMNAEDPLFILYTSGSTGKPKGVLHTTGGYLVYAALTFKYVFDYHPGDIYWCTADVGWVTGHSYLLYGPLACGATTLMFEGVPNWPTPARMAQVVDKHQVNILYTAPTAIRALMAEGDKAIEGTDRSSLRILGSVGEPINPEAWEWYWKKIGNEKCPVVDTWWQTETGGFMITPLPGATELKAGSATRPFFGVQPALVDNEGNPLEGATEGSLVITDSWPGQARTLFGDHERFEQTYFSTFKNMYFSGDGARRDEDGYYWITGRVDDVLNVSGHRLGTAEIESALVAHPKIAEAAVVGIPHNIKGQAIYAYVTLNHGEEPSPELYAEVRNWVRKEIGPLATPDVLHWTDSLPKTRSGKIMRRILRKIAAGDTSNLGDTSTLADPGVVEKLLEEKQAIAMPS	3.24 ± 0.14 h	3.221 ± 0.018 h	4.91 ± 0.44 h	7.66 ± 0.46 h	3.88 ± 0.81 h	7.43 ± 0.81 h	4.67 ± 0.31 h	3.54 ± 0.24 h	4.67 ± 0.55 h	4.28 ± 0.03 h	4.83 ± 0.67 h	2.89 ± 0.091 h
MSQKLKVVTIGGGSSYTPELLEGFIKRYHELPVSELWLVDVEGGKPKLDIIFDLCQRMIDNAGVPMKLYKTLDRREALKDADFVTTQLRVGQLPARELDERIPLSHGYLGQETNGAGGLFKGLRTIPVIFDIVKDVEELCPNAWVINFTNPAGMVTEAVYRHTGFKRFIGVCNIPIGMKMFIRDVLMLKDSDDLSIDLFGLNHMVFIKDVLINGKSRFAELLDGVASGQLKASSVKNIFDLPFSEGLIRSLNLLPCSYLLYYFKQKEMLAIEMGEYYKGGARAQVVQKVEKQLFELYKNPELKVKPKELEQRGGAYYSDAACEVINAIYNDKQAEHYVNIPHHGQIDNIPADWAVEMTCKLGRDGATPHPRITHFDDKVMGLIHTIKGFEIAASNAALSGEFNDVLLALNLSPLVHSDRDAELLAREMILAHEKWLPNFADCIAELKKAH	> 8 h	3.97 ± 0.054 h	6.45 ± 1.8 h	9.95 ± 0.38 h	4.52 h	11 ± 1.1 h	6.05 ± 1.9 h		8.23 ± 0.59 h	6.29 ± 0.62 h	7.38 h	2.84 ± 0.34 h
MSQLNSVWVFSDNPERYAELFGGAQQWGQQVYAIVQNTDQAQAVMPYGPKCLYVLAQNDALQRTENYAESIAALLKDKHPAMLLLAATKRGKALAARLSVQLNAALVNDATAVDIVDGHICAEHRMYGGLAFAQEKINSPLAIITLAPGVQEPCTSDTSHQCPTETVPYVAPRHEILCRERRAKAASSVDLSKAKRVVGVGRGLAAQDDLKMVHELAAVLNAEVGCSRPIAEGENWMERERYIGVSGVLLKSDLYLTLGISGQIQHMVGGNGAKVIVAINKDKNAPIFNYADYGLVGDIYKVVPALISQLSR	4.24 h						5.37 ± 0.057 h		6.04 h			
MSQLTHINAAGEAHMVDVSAKAETVREARAEAFVTMRSETLAMIIDGRHHKGDVFATARIAGIQAAKRTWDLIPLCHPLMLSKVEVNLQAEPEHNRVRIETLCRLTGKTGVEMEALTAASVAALTIYDMCKAVQKDMVIGPVRLLAKSGGKSGDFKVEADD [P0A738]	4.56 ± 0.47 h	3.95 ± 0.17 h	4.96 ± 0.099 h	8.28 ± 0.49 h	4.1 ± 0.28 h	9.42 ± 0.47 h	5.289 ± 0.028 h	4.41 ± 0.087 h	5.91 ± 0.19 h	4.92 ± 0.059 h	5.03 ± 0.15 h	2.9 ± 0.24 h
MSQNLDATAINQIHALISAQGVNEIISKIGADAVALPENFRIHDLEKFNLNRFRFRGALSTASIDDFTRYSKDLADEGTRCFIDADNMRAVSVLNLGTIDEPGHADNTATLKLKKTAPFSALLSVNGERNSQKSLAEWIEDWADYLVGFDANGDAIQATKAAAAIRKITIEANQTADFEDNDFSGKRSLMESVEAKTKDIMPVAFEFKCVPFEGLKERPFKLRLSIITGDRPVLVLRIIQLEAVQEDMANEFRDLLVEKFKDSKVETFIGTFTA			5.13 ± 0.22 h	9.79 ± 0.92 h		15.2 ± 0.98 h	3.03 ± 0.25 h		5.29 h	5.71 ± 0.56 h	3.16 h	2.69 h
